The supplement of paper PMC10065799, “High-throughput profiling of sequence recognition by tyrosine kinases and SH2 domains using bacterial peptide display” (eLife, 2023)

Key:
MERTK = MERTK (UniProt Q12866); assay: phosphorylation enrichment, bacterial display (enrichment ratio); higher = better substrate or ligand; peptides without Tyr show the background
Hck = Hck (UniProt P08631); assay: as above
EPHB2 = EPHB2 (UniProt P29323); assay: as above
Fes = Fes (UniProt P07332); assay: as above
Jak2 = Jak2 (UniProt O60674); assay: as above
c-Abl (mouse) = assay: as above
FGFR1 = FGFR1 (UniProt P11362); assay: as above
FGFR1, sequence (P11362 whole entry, looked up): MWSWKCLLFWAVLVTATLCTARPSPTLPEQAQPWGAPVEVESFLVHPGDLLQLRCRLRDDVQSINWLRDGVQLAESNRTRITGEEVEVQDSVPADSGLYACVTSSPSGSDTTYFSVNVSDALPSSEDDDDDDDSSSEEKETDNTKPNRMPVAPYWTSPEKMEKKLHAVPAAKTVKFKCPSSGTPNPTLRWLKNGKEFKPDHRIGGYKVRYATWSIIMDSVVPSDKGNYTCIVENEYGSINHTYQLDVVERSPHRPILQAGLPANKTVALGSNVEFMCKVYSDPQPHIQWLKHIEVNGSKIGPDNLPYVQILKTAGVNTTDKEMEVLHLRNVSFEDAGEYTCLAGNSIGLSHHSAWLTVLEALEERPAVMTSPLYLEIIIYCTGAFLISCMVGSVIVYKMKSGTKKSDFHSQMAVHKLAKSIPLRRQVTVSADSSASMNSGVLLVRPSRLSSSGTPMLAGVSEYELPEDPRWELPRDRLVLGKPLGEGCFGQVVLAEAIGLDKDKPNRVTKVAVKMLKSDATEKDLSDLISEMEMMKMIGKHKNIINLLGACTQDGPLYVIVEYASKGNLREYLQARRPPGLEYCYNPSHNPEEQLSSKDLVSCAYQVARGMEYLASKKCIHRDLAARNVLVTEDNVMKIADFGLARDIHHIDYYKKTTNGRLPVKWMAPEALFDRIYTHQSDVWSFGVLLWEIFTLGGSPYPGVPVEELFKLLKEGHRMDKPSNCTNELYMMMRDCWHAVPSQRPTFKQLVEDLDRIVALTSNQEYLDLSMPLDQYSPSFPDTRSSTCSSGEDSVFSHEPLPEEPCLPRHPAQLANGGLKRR

Fer (mouse) = assay: as above
Fyn = Fyn (UniProt P06241); assay: as above
Fyn, sequence (P06241 whole entry, looked up): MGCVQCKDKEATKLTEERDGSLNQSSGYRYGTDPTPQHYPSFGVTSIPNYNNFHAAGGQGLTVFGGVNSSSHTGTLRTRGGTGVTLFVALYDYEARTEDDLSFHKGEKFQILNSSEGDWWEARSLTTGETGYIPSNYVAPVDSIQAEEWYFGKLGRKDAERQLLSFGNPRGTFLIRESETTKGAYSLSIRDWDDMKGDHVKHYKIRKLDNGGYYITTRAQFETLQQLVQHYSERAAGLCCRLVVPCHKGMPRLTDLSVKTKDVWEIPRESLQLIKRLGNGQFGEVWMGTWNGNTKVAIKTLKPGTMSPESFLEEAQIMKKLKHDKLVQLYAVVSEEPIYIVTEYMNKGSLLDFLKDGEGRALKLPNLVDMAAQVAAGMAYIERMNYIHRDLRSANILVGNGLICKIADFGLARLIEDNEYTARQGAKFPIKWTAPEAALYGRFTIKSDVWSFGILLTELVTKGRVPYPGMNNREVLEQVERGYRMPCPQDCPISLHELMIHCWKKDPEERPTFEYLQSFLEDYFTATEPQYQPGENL

AncSZ = assay: as above
FGFR3 = FGFR3 (UniProt P22607); assay: as above
EPHB1 = EPHB1 (UniProt P54762); assay: as above
EPHB1, sequence (P54762 whole entry, looked up): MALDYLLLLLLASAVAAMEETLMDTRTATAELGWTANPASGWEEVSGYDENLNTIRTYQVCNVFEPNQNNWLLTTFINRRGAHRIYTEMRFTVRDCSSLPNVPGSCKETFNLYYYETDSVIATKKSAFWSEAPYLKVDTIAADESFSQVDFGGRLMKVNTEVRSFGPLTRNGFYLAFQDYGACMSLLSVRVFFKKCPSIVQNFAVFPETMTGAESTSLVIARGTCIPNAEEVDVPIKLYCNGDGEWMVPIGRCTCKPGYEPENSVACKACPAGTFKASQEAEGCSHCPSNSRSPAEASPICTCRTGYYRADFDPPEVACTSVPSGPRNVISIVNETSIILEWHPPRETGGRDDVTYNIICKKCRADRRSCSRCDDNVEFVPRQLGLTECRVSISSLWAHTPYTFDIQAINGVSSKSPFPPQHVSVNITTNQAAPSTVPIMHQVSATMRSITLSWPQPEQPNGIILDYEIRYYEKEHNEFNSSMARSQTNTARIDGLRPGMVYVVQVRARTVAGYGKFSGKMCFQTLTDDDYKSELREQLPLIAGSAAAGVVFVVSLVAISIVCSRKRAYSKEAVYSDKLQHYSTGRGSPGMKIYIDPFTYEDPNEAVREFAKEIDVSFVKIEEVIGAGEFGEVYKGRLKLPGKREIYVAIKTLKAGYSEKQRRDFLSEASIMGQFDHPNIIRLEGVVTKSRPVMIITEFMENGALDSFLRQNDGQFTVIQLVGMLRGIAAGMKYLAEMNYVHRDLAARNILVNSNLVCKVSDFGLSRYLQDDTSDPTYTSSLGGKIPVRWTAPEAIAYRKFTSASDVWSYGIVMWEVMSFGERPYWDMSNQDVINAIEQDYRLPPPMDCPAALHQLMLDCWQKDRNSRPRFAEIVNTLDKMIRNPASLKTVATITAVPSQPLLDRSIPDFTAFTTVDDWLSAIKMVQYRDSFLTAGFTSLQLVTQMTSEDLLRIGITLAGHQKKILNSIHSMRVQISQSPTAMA

c-Src = assay: as above
Grb2 SH2 = Grb2 SH2 (UniProt P62993); assay: SH2 binding enrichment of the phosphorylated peptide, bacterial display (enrichment ratio); higher = better substrate or ligand; peptides without Tyr show the background
c-Src SH2 = assay: as above
SHP2-C SH2 = assay: as above
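Throughout, for SH2 binding enrichment of the phosphorylated peptide, bacterial display: peptide library displayed on the E. coli surface as eCPX fusions, selected cells deep-sequenced, score is each peptide's frequency after selection divided by its frequency in the input.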
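Throughout, for phosphorylation enrichment, bacterial display: 11-residue human phosphosite peptides and single-mutation variants displayed on the E. coli surface, counted by deep sequencing, each peptide's frequency after selection divided by its frequency in the unselected input library; frequency after pTyr selection over input frequency; kinase dosed for 20-30% of maximal phosphorylation in three min.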

EPHB2, sequence (P29323 whole entry, looked up): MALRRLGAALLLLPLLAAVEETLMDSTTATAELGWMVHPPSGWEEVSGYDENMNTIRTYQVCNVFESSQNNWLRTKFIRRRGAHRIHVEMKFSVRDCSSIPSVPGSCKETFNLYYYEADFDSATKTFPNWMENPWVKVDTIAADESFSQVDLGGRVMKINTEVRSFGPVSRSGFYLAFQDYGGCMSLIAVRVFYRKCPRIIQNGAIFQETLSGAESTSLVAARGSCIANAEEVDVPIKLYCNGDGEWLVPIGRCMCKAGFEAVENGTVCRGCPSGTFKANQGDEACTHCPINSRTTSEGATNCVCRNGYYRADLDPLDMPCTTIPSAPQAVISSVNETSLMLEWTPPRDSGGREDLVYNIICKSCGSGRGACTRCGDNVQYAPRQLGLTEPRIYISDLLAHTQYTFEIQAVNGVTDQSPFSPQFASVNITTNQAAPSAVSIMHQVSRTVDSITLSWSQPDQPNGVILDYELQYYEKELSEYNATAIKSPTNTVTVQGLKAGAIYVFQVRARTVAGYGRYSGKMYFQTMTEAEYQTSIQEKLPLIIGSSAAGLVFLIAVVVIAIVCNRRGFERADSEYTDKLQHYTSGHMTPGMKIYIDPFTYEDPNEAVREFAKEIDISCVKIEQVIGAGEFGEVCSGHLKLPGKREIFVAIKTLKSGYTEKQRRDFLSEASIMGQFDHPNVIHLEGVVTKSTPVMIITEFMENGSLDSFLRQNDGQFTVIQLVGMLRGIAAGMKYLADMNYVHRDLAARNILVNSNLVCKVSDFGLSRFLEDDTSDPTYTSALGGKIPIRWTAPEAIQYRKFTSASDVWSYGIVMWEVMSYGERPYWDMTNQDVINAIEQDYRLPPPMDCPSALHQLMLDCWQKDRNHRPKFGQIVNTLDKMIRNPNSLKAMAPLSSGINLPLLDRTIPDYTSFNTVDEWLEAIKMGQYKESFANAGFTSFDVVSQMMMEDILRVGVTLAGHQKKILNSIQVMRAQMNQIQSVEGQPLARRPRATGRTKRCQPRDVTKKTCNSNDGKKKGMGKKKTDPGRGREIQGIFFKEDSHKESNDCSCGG
MERTK, sequence (Q12866 whole entry, looked up): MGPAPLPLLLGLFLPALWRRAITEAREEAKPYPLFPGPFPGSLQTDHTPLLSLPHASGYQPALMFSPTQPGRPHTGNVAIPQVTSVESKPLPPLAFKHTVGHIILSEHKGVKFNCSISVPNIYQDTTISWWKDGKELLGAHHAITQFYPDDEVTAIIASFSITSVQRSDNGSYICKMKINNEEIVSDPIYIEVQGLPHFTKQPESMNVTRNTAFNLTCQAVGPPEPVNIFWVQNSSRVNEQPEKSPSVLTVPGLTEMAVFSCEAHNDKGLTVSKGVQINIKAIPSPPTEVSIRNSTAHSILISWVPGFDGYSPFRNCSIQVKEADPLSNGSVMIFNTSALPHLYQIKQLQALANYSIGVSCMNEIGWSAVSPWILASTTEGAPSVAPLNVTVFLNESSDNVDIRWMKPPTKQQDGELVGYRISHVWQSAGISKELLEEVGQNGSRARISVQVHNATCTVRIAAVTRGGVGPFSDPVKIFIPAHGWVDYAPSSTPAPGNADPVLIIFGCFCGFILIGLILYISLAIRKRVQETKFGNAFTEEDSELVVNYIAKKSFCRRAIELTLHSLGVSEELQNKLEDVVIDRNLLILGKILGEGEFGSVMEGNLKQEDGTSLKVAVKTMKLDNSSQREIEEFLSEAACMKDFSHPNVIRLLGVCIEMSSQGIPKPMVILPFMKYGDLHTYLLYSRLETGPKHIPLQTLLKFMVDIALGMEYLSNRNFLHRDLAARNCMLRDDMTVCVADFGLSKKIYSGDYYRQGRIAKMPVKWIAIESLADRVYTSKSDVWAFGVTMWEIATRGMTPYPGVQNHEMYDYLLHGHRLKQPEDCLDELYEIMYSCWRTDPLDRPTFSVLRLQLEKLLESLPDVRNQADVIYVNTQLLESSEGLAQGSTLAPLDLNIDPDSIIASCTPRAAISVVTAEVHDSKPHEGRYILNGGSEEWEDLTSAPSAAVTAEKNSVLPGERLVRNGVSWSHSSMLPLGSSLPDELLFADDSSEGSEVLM
Hck, sequence (P08631 whole entry, looked up): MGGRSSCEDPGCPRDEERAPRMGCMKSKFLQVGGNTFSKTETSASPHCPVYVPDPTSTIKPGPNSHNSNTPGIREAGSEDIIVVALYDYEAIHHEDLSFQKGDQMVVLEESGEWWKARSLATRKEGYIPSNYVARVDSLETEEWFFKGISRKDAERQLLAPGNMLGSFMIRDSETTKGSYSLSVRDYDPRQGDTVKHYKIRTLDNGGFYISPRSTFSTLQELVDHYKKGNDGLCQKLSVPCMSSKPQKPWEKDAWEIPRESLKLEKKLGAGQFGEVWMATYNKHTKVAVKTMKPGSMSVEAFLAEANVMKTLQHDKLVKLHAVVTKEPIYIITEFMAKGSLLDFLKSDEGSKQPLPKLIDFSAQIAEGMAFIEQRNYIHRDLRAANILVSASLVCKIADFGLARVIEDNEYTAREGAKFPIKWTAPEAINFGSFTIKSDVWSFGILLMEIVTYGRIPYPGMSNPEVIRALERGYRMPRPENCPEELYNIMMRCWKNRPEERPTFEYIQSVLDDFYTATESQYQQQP

Sequence | phosphorylation enrichment (MERTK) | phosphorylation enrichment (Hck) | phosphorylation enrichment (EPHB2) | phosphorylation enrichment (Fes) | phosphorylation enrichment (Jak2) | phosphorylation enrichment (c-Abl (mouse)) | phosphorylation enrichment (FGFR1) | phosphorylation enrichment (Fer (mouse)) | phosphorylation enrichment (Fyn) | phosphorylation enrichment (AncSZ) | phosphorylation enrichment (FGFR3) | phosphorylation enrichment (EPHB1) | phosphorylation enrichment (c-Src) | SH2 binding enrichment (Grb2 SH2) | SH2 binding enrichment (c-Src SH2) | SH2 binding enrichment (SHP2-C SH2)
LRRFIYRPPDQ [OTOF_Y1231_R1236Q] | 0.516 | 0.493 | 0.606 | 0.606 | 0.502 | 0.333 | 0.443 | 0.445 | 0.479 | 0.675 | 0.397 | 0.409 | 0.318 | 0.595 | 0.359 | 0.391
LRTAVHHEILI [CREBBP_Y1450_Y1450H] | 0.535 | 0.643 | 0.487 | 1.39 | 1.32 | 1.94 | 0.963 | 0.675 | 0.508 | 1.09 | 0.812 | 1.02 | 0.701 | 0.973 | 0.48 | 0.756
LSIDRYHAIVY [NPSR1_Y147] | 0.7 | 0.533 | 0.594 | 1.15 | 1.65 | 0.982 | 3.36 | 0.544 | 0.546 | 0.83 | 1.87 | 0.438 | 0.89 | 1.25 | 5.31 | 1.03
LSSVSYVGCSL [ADGRD1_Y571_I569V] | 1.05 | 1.01 | 1.06 | 1.46 | 1.23 | 1.35 | 0.949 | 0.98 | 1.16 | 1.2 | 1.04 | 0.633 | 1.12 | 0.798 | 0.519 | 0.691
LTEEKYELKEG [TREM1_Y29] | 0.705 | 0.782 | 0.875 | 1.41 | 1.65 | 0.785 | 0.711 | 0.593 | 0.698 | 2.36 | 0.979 | 0.977 | 0.52 | 1.14 | 0.494 | 0.639
LTEHGYSFTTT [ACTB_Y198_R196H] | 0.938 | 0.342 | 0.533 | 1.79 | 1.61 | 1.58 | 0.961 | 0.815 | 0.968 | 2.11 | 1.09 | 0.862 | 1.09 | 0.817 | 1.88 | 0.883
LTERSYSFVTT [ACTA1_Y200_G199S] | 2.56 | 1.04 | 0.984 | 1.24 | 1.03 | 0.889 | 0.973 | 2.92 | 0.622 | 0.951 | 0.718 | 0.543 | 0.856 | 0.945 | 5.24 | 4.37
LTFHMYADPNF [SOS1_Y618_YF] | 0.843 | 0.711 | 1.45 | 1.97 | 1.61 | 1.99 | 0.715 | 0.901 | 0.577 | 1.81 | 1.1 | 1.67 | 0.755 | 0.854 | 6.02 | 0.816
